We go through 40 sequences from the nanobody polyreactivity screen of Harvey et al. (2022).

This data set can be described thus: yeast display, Sf9 membrane polyspecificity reagent, FACS + sequencing; frameworks hold sequencing errors. The gist of the method: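 Synthetic nanobody libraries on Saccharomyces cerevisiae BJ5465 were galactose-induced for 36–48 hours, stained 1 hour at 4 °C with 10% biotinylated, detergent-solubilized Sf9 membrane reagent and enriched on streptavidin microbeads. FACS then separated cells into low and high (top ~1%) gates by anti-HA (expression) and streptavidin (reagent binding) fluorescence. Genes were colony-PCR amplified, MiSeq 2 × 250 sequenced and CDR-length filtered. A clone's polyreactivity label is that of its gate of origin.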
In the case of “QVQLVESGGGLVQAGGSLRLICAASGRTFGGYAMGWYRQAHGKERELVAAISDRGTSTYYADSVKGRFTISRDNAKYTVYLQMNSVKPEDTAVYYCAASSARRRMDYWGQGTQVTVSS”, the “polyreactivity (PSR sort gate)” value is recorded as “high polyreactivity”.
Turning to “QVQLVESGGGLVQAGGSLRLICAASGRTFGTNTMGWYRQAPGKERELVATISSSSGSTYYADSVKGRFTISRDNAKNTVYLQMNSLKPEDSAVYYWAALYRWGYKRYDYWGQGTQVTVSS”, the “polyreactivity (PSR sort gate)” value is “high polyreactivity”.
For “QVQLVESGGGLVQAGGSLRLICAASGRTFKDYAMGWNRQAPGKERELVADISWSGGDTYYADSVKGRFTISRDNAKNTVYLQMNSLKPEDTAVYYCAADWSWCDGEDYHFEYDYWGQGTQVTVSS” the value was “low polyreactivity”; for “QVQLVESGGGLVQAGGSLRLICAASGRTFLPNAMGWYRQAPGKERELVAVITSAGSTYYADSVKGRFTISRDNAKNTVYLQRNSLKPEDTAVYYCSADYLDYDLGDPPPRYYYWGQGTQVTVSS”, “low polyreactivity”; for “QVQLVESGGGLVQAGGSLRLICAASGRTFNRYAMGWYRTAPRTERELVAVINSASSTNYADSVKGRFTISRDNAKNTVYLQMYSLKPEDTAVYYCNADGYRWYWYTGPMDYWGQGTKVTVSS”, “high polyreactivity”.
The entry for “QVQLVESGGGLVQAGGSLRLICAASGRTFPGYAMGWYRPAPGKDRELVAAISNSGGRTYYADSVKGRFTISRDNAKKTVYLQMTSLKREDTAVYYCNATTDNGSNKRYYYWGQGTQVTVSS” is “high polyreactivity”; for “QVQLVESGGGLVQAGGSLRLICAASGRTFRGYTMGWYRQAPGKERELVAAITWSGGSTYYADSVKGRFTISRDNAKNTVYLQMNSLKPEDTAVYYCAATKYLSFLYDYWGQGTLVTVSS” it is “high polyreactivity”.
For “QVQLVESGGGLVQAGGSLRLICAASGRTFRRNAMGWYRQAPGKERELVAGIRSSGGSTYYADSVKGRFTISRDNAKNTVYLQMNSLKTEDTAVYYFAAAYRSASFPYDYWGQGTQVTVSS” the value was “high polyreactivity”.
In the case of “QVQLVESGGGLVQAGGSLRLICAASGRTFTRYAMGWYRQAAGKERELVAAITSTGSTYYADSVKGRFTISRDNAKNTVYLQMNSLKPEDTAVYYCNKVGIRYYYGYDYWGQGTQVTVSS”, the “polyreactivity (PSR sort gate)” value is given as “high polyreactivity”.
Turning to “QVQLVESGGGLVQAGGSLRLICAASGRTFWDYAMGWYRQAPGKERELVAAITASGTRTYYADSVKGRFTISRDNAKNTVFLQMNSLKPEDTAVYYCAAARIWWAHAYPTYVANDYWGQGTQVTVSS”, the “polyreactivity (PSR sort gate)” value is “high polyreactivity”.
The entry for “QVQLVESGGGLVQAGGSLRLICAASGRTFYGYAMGWYRQAPGKERELVAAISTGGGRTYYADSVKGRFTISRDNAKNTVYLQMNSLKPEDTAVYYCAARRAYPHYRVDYWGPGTQVTVSS” is “high polyreactivity”.
For “QVQLVESGGGLVQAGGSLRLICAASGRTFYSKTMGWSRQAPGKEREFVAAIPSIVGSTYYADSVKGRFTISRDNAKITVYFKMNSLKPEDTAVYYCAVTDYYSYQLRYDSSGQGTQVTVSS” the value was “low polyreactivity”; for “QVQLVESGGGLVQAGGSLRLICAASGRTFYSYAMGWYRQAPGKERELVASISSGGGTNYADSVKGRFTISRDNAKNTVYLQKNSLKPEDTAVYYCDVDPYPYRGYDYWGQGTQVTVSS”, “low polyreactivity”.
For “QVQLVESGGGLVQAGGSLRLICAASGRTFYVYAMAWYRQEPGKERELVAAISKSGGSTYYADSVKGRFTISRDNAKNSVYLPMNSLKPEDTAGYYCNRYRFVRQVRGGGLPYDYWGQGTQVTVSS” the value was “high polyreactivity”; for “QVQLVESGGGLVQAGGSLRLICAASGRTIGRNAMRWSRQAPGKERELVAAISSSGGSTYYADSVKGRFTISRDKAKNTVYLQMNSLKPEDTAVYYCNARGWYGLRKYYYWGQGTQVTVSS”, “high polyreactivity”; for “QVQLVESGGGLVQAGGSLRLICAASGRTIRYYAMGWYRQAPGKERELVAAITQNGGRTYYADSVKGRFTISRDNAKNTVYLQMNSLKPEDTAVYYCAKAFIQPGDKYDSWGQGTQVTVSS”, “high polyreactivity”.
With “QVQLVESGGGLVQAGGSLRLICAASGRTLGYNARGWYRQAPGKETELVAAISYGGGGTYYADSVKGRFTISRDNAKNTVYLQMNSLKPEDTAVYYCAKPRAFVGYNHWGQGTQVTVSS”, the “polyreactivity (PSR sort gate)” value is reported as “low polyreactivity”.
For “QVQLVESGGGLVQAGGSLRLICAASGRTLSGYAMGWYRQAPGKDRELVAVITSGGSTYYADSVKGRFTISRDNAKNTVYLQMNSLKPEDTAVYYCAARGSRLYSSWRGVYWGQGTQVTVSS” the value was “high polyreactivity”; for “QVQLVESGGGLVQAGGSLRLICAASGRTSYTYVMGWYRQAPGKERELVAAIRLSGGNTYYADSVKGRFTISRDNAKNTVYLQMNSLKPEDTAVYYCAAQYWRHRKAYGYWGQGSQVTVSS”, “high polyreactivity”; for “QVQLVESGGGLVQAGGSLRLICAASGRTYDKYVMGWYRQAPGKERELVSAISFRGVRTYYADSVKGRFTISRDNAKNTFYLQKNSLKPEDTGVYYCAARFTFSAIIGPYGYWGQGTQVTVSS”, “high polyreactivity”.
The entry for “QVQLVESGGGLVQAGGSLRLICAASGSIFAGNAMGWYRQAPGKERELVAAITWSGGSTYYADSVKGRFTISRDNAKNTVYLQMNSLKPEDTAVYYCAAPTQADVVGYDYWGQGTQVTVSS” is “low polyreactivity”.
The entry for “QVQLVESGGGLVQAGGSLRLICAASGSIFDWNAMGWYRQAPGKERELVATISWDGGSTYYADSVKGRFTISRDNAKNTVYLQMNSLKPEDTAVYYCATVFTGKPAYYARTKYDYWGQGTQVNVSS” is “low polyreactivity”; for “QVQLVESGGGLVQAGGSLRLICAASGSIFFPYDMGWYRQAPGKERELVASITRAGSTNYADSVKGRFTISRDNAKNTVYLQMNSLKPEDTAVYYCAARNYRQFEYGYWGQGTQVTVSS” it is “low polyreactivity”; for “QVQLVESGGGLVQAGGSLRLICAASGSIFGHNAMGWYRQAPGKERELVAAINASDGNTYYADSVKGRFTISRDNAKNTVYLQMNSLKPEDTAVYYCAAEGYFDHYYYYRVYSWGQGTQVTVSS” it is “low polyreactivity”.
As for “QVQLVESGGGLVQAGGSLRLICAASGSIFGLYAMGWYRPAPGKEREFVASITYSGGSTYYADSVKGRFTISRDNAKNTVYLQMNSLKPEDTAVYYCAAESYWGYDYWGQGTQVTVSS”, the “polyreactivity (PSR sort gate)” value was “high polyreactivity”.
The entry for “QVQLVESGGGLVQAGGSLRLICAASGSIFGSSAMGWYRQAPGKERSTYYADSVKGRFTISRDNAKNTVYLQMNSLKPEDTAVYYCAADTYGYQGSAGGHWGQGTQVTVSS” is “low polyreactivity”; for “QVQLVESGGGLVQAGGSLRLICAASGSIFIGNTMGWYRQAPGKERELVATIRRSGSRTYYADSVKGRFTISRDNAKNTVYLQMNSLKPEDPAVYYCNAEGVGRYSPVSHTFDYWGQGTQVTLSS” it is “low polyreactivity”.
For “QVQLVESGGGLVQAGGSLRLICAASGSIFITNAMGWYRQAPGKEREMVAAISGRGGSTYYADSVKGRFTISRDNAKNTVYLQMNSLKPEDTAVYYCNAYSYRVSGYDYWGQGTQVTVSS” the value was “high polyreactivity”; for “QVQLVESGGGLVQAGGSLRLICAASGSIFITYAMGWSRQAPGKERELVAAIRRGGRTNYADSVKGRFTISRDNAKNTVYLQMNSLKPEDTAVYYCAAEFHTGWPYYPDYAYDYWGQGTQVTVSS”, “low polyreactivity”; for “QVQLVESGGGLVQAGGSLRLICAASGSIFKIYAMGWYRQAPGKERELVARITRRGGRTNYADSVKGRFTISRDNAKNTVYLQINSLKPEDTAVYYCAATVYPSVYGENHYGYWGQGTQVTVSS”, “high polyreactivity”.
Regarding “QVQLVESGGGLVQAGGSLRLICAASGSIFLFNAMGWYRQAPGKERQLVAAISKSGGSTHYADSVKGRFTISRDNAKNTVYLQMNSLKPEDSAVYYCAARVGDLGSQKTDSVYRVYYWGQGTQVTVSS”, the “polyreactivity (PSR sort gate)” value is reported as “low polyreactivity”.
The entry for “QVQLVESGGGLVQAGGSLRLICAASGSIFLLYDMGWYRQAPGKERELVAAITWSGGSTYYADSVKGRFTISRDNAKNTVYLQMNSLKPEDTAVYYCAADEPYPTAYEYWGQGTQVTVSS” is “low polyreactivity”; for “QVQLVESGGGLVQAGGSLRLICAASGSIFLNYAMGWYRQAPGKERELVASLRRIGGRTFYADSVKGSFTISRDNAKNTVYLQMNSLKPEDTAVYYCAAEYYYGLTVEYWGQGTQVTVSS” it is “high polyreactivity”.
For “QVQLVESGGGLVQAGGSLRLICAASGSIFPANVMGWYRQAPGKERELVAVISSSGGRTFYADSVKGRFTISRDNAKNTVYLQMNSLKPDDTAVYYCAATIYDYKRALKYYYWGLGTQVTVSS” the value was “high polyreactivity”.
The entry for “QVQLVESGGGLVQAGGSLRLICAASGSIFQFYAMGWYRQAPGKERELVAVITTSGVSTYYADSVKGRFTISRDNAKNTDYLQMNSLKPEDTAVYYCAADDYYLAGDYWGQGTQVTVSS” is “low polyreactivity”; for “QVQLVESGGGLVQAGGSLRLICAASGSIFQPYAMGWYRQAPGKERELVAAINGRGGSTHYADSVKGRFTISRDNAKNTVYLQMNSLKPEDTAVYYCAARYYRDYRWYTYAYDYWGQGTQVTVSS” it is “high polyreactivity”.
For the sequence “QVQLVESGGGLVQAGGSLRLICAASGSIFRSYAMGWYRQAPGKERELVAPIDRSGGSTYYADSVKGRLTISRDYAKNTVYCQLNSLKPEDTAVYNSNKTPHFPRPGFNYWGLGTQVTVSS”, the “polyreactivity (PSR sort gate)” value was “low polyreactivity”.
The entry for “QVQLVESGGGLVQAGGSLRLICAASGSIFRYYVKGWYRQAPGKERELVASISYSVGRTYYADSVKGRFTISRDYAKNTVYLQMNSLKPEDTAVYYCAADRYWPYYSAYYTSYRMDYWGQGTQVTVSS” is “high polyreactivity”.
The entry for “QVQLVESGGGLVQAGGSLRLICAASGSIFSSYAMGWYRQAPGTGRELVASISRRGGSTYYADSVKGRFTISRDNAKNTVYLQMNSLKPEDTAVYYCNASGGPYRYYYWGQGTQVTVSS” is “low polyreactivity”.
The entry for “QVQLVESGGGLVQAGGSLRLICAASGSIFTSNAMGWYRQAPGKERELVAAITSDGAITYADSVKGRFTISRDNAKNTVYLQMNSLKPEDTAVYYCATEIEYYVGSVADMGYWGQGTQVTVSS” is “low polyreactivity”.
